Assays:
Assay type in all cases: in vivo, human
[1] = system: HER2 negative hormone receptor-positive metastatic breast cancer; assay: AIPAC Phase IIb study: overall survival (OS)
Procedure: (§1) A Phase IIb clinical study was carried out to investigate the safety and efficacy of the active immunotherapy IMP321 in combination (adjunctive) with paclitaxel chemotherapy in patients with HER2 negative hormone receptor-positive metastatic breast cancer.
(§2) A multicentre, placebo-controlled, double-blind, 1:1 randomised Phase IIb study in female HER2 negative hormone receptor-positive metastatic breast cancer patients was conducted. The study comprised two stages: • stage 1 which was an open-label, safety run-in stage consisting of cohorts 1 and 2 to confirm the recommended Phase II dose (RPTD) of IMP321 in combination with paclitaxel; and • stage 2 which was a placebo-controlled, double-blind randomisation stage, paclitaxel+IMP321 at the RPTD compared to paclitaxel+placebo.
(§3) Paclitaxel+IMP321 at the RPTD of 30 mg (114 patients):
(§4) The chemo-immunotherapy phase consisted of 6 cycles of 4 weeks. Patients received weekly paclitaxel at Days 1, 8 and 15 with adjunctive treatment of study agent (IMP321) on Days 2 and 16 of each 4-week cycle. After completion of the 6-cycle chemo-immunotherapy phase, responding or stable patients received study agent (IMP321) every 4 weeks during the maintenance phase for an additional period of up to 12 injections.
(§5) Active Comparator: Paclitaxel+Placebo (112 patients):
(§6) The chemo-immunotherapy phase consisted of 6 cycles of 4 weeks. Patients received weekly paclitaxel at Days 1, 8 and 15 with adjunctive treatment of study agent (placebo) on Days 2 and 16 of each 4-week cycle. After completion of the 6-cycle chemo-immunotherapy phase, responding or stable patients received study agent (placebo) every 4 weeks during the maintenance phase for an additional period of up to 12 injections.
(§7) Secondary Outcome Measures: • 1. […] Assessment of the overall survival (OS) • 3. […] Evaluation of the time to next treatment • 6. Evaluation of objective response rate (ORR) • 7. Evaluation of stable disease

[2] = AIPAC: quality of life (QoL); details: at week 25
From the text: as §7

[3] = system: HER2 negative hormone receptor-positive metastatic breast cancer; assay: AIPAC Phase IIb study: progression-free survival (PFS); details: investigator read; for PFS absolute gain / PFS Hazard Ratio: vs paclitaxel + placebo
Procedure: as §1, §2, §3, §4, §5, §6
Primary Outcome Measures: • 1. Stage 1 to determine the recommended phase two dose (RPTD) for the randomised phase • 2. Assessment of Progression-Free Survival (PFS)

[4] = Pharmacokinetics of s.c. IMP321 in metastatic renal cell cancer patients
[5] = system: HER2 negative hormone receptor-positive metastatic breast cancer; assay: AIPAC Phase IIb study: best overall response acc. to RECIST 1.1 by BICR (ORR, DCR); details: entire patient population
Procedure: as §1, §2, §3, §4, §5
The chemo-immunotherapy phase consisted of 6 cycles of 4 weeks. […]

[6] = Safety of s.c. IMP321 doses

B1: IMP321: recombinant soluble human LAG-3Ig fusion protein, 160-kDa dimer: extracellular domain of hLAG-3 fused to the human IgG1 Fc (protein)
chain: LQPGAEVPVVWAQEGAPAQLPCSPTIPLQDLSLLRRAGVTWQHQPDSGPPAAAPGHPLAPGPHPAAPSSWGPRPRRYTVLSVGPGGLRSGRLPLQPRVQLDERGRQRGDFSLWLRPARRADAGEYRAAVHLRDRALSCRLRLRLGQASMTASPPGSLRASDWVILNCSFSRPDRPASVHWFRNRGQGRVPVRESPHHHLAESFLFLPQVSPMDSGPWGCILTYRDGFNVSIMYNLTVLGLEPPTPLTVYAGAGSRVGLPCRLPAGVGTRSFLTAKWTPPGGGPDLLVTGDNGDFTLRLEDVSQAQAGTYTCHIHLQEQQLNATVTLAIITVTPKSFGSPGSLGKLLCEVTPVSGQERFVWSSLDTPSQRSFSGPWLEAQEAQLLSQPWQCQLYQGERLLGAAVYFTELSSPG
modifications: left off: small tags and cut ends; a dimerising Fc or GST
notes: recombinant soluble human LAG-3Ig fusion protein, 160-kDa dimer: extracellular domain of hLAG-3 fused to the human IgG1 Fc
[1]; Luminal B type, investigator read
  Median OS: 16.3 months
[1]; Luminal B type, investigator read, vs paclitaxel + placebo
  OS absolute gain: +3.8 months
[1]; age < 65 years, investigator read
  Median OS: 21.9 months
[1]; age < 65 years, investigator read, vs paclitaxel + placebo
  OS absolute gain: +7.1 months
[1]; entire patient population, investigator read, vs paclitaxel + placebo
  OS Hazard Ratio [95% CI]: 0.83
[1]; entire patient population, vs paclitaxel + placebo
  gain in median OS: 2.7 months
[1]; low (<0.25 × 10^9/L) monocytes at baseline, investigator read
  Median OS: 22.4 months
[1]; low monocytes at baseline, investigator read, vs paclitaxel + placebo
  OS absolute gain: +9.4 months
[1]; with prior CDK4/6 therapy, investigator read
  Median OS: 20.2 months
[1]; with prior CDK4/6 therapy, investigator read, vs paclitaxel + placebo
  OS Hazard Ratio: HR 0.84
[1]; without prior taxane therapy, investigator read
  Median OS: 21.4 months
[1]; without prior taxane therapy, investigator read, vs paclitaxel + placebo
  OS Hazard Ratio: HR 0.69
[2]
  deterioration in Quality of Life (QoL): not observed
[3]; Luminal B type
  PFS median: 7.2 months
  PFS absolute gain: +1.7 months
[3]; age < 65 years
  Median PFS: 7.2 months
  PFS absolute gain: +1.7 months
[3]; low (<0.25 × 10^9/L) monocytes at baseline
  PFS median: 7.5 months
[3]; low monocytes at baseline
  PFS absolute gain: +2.3 months
[3]; with prior CDK4/6 therapy
  Median PFS: 5.6 months
  PFS Hazard Ratio: HR 1.02
  PFS absolute gain: −1.1 months
[3]; without prior taxane therapy
  Median PFS: 7.2 months
  PFS Hazard Ratio: HR 0.88
  PFS absolute gain: +1.7 months
[4]; doses of 6-30 mg per s.c. injection, metastatic renal cell cancer patients
  systemic exposure: acceptable systemic exposure
[4]; for at least 24 hours after s.c. injection, doses of more than 6 mg
  blood concentration of IMP321: > 1 ng/mL
[5]
  Progressive disease: fewer patients with immediate progression
[6]; doses of 6-30 mg per s.c. injection
  safety: safe
[6]; to date
  dose limiting toxicity: No dose limiting toxicity has been observed

Reference: patent publication US20230210946A1, “TREATMENT OF CANCER” (Immutep S.A.S., priority 2020, published 2023)
